The results in this text go back to PMC5516325, “Sequence-based identification of inositol monophosphatase-like histidinol-phosphate phosphatases (HisN) in Corynebacterium glutamicum, Actinobacteria, and beyond” (BMC Microbiology, 2017).

Holding throughout (format): biochemical, Corynebacterium glutamicum
Series [1] concerns T1, Cg0911.
T1 construct: tag-free (C-terminal intein tag self-cleaved, IMPACT system), expressed in E. coli ER2566
The series can be described thus: phosphate release from HolP, malachite green; activation. The conditions noted are these: activator (also reaction product); 500 μM HolP, 5 mM MgSO4, 1 M triethanolamine, pH 7.35, 30 °C; read-out: Half maximal stimulation.

Series [2] concerns T1, Cg0911. The series can be described thus: phosphate release, malachite green; Hill equation fit. As to conditions: 5 mM MgSO4, 100 mM triethanolamine, pH 7.35, 30 °C. The text has this: phosphate release, malachite green; Hill equation fit on Cg0911
Substrate in series [3]: N[C@H](COP(=O)(O)O)Cc1c[nH]cn1
The description is as above. The conditions noted are these: 5 mM MgSO4, 100 mM triethanolamine, pH 7.35, 30 °C. The text has this:
phosphate release, malachite green; Hill equation fit on HisN (HisNCg)

For the molecule `N[C@H](CO)Cc1c[nH]cn1` [L-histidinol], the EC50 in series [1] was determined as 860 ± 60 µM.
The Km is the substrate concentration at which the rate is half of its maximum. Consider `N[C@H](COP(=O)(O)O)Cc1c[nH]cn1` [L-histidinol-phosphate], for which the Km in series [2] stood at 638 ± 70.5 µM.

B1: HisN (HisNCg) (Corynebacterium glutamicum ATCC 13032) (protein)
chain: MSKYADDLALALELAELADSITLDRFEASDLEVSSKPDMTPVSDADLATEEALREKIATARPADSILGEEFGGDVEFSGRQWIIDPIDGTKNYVRGVPVWATLIALLDNGKPVAGVISAPALARRWWASEGAGAWRTFNGSSPRKLSVSQVSKLDDASLSFSSLSGWAERDLRDQFVSLTDTTWRLRGYGDFFSYCLVAEGAVDIAAEPEVSLWDLAPLSILVTEAGGKFTSLAGVDGPHGGDAVATNGILHDETLDRLK
notes: tag-free (C-terminal intein tag self-cleaved, IMPACT system, NEB), expressed in E. coli ER2566
As usually defined, the kcat is the number of substrate molecules converted per active site and unit of time at saturation. A word on the kcat/Km: it is the turnover number divided by the Michaelis constant. Turning to B1, in series [3], the Km stood at 23.6 ± 1.4 µM, the kcat worked out at 1.04 ± 0.06 s⁻¹ and the kcat/Km was 44100 M⁻¹ s⁻¹.
